Measurements from patent publication US20240252614A1 (Pfizer, published 2024).

Experiments:
[1] = target: T1, hMPV047 (hMPV A, UniProt Q6WB98 19-102); test: BLI, no stress
T1 construct: L141C-A159C
Method: (§1) The OCTET HTX (Sartorius, Gottingen, Germany) instrument was used to evaluate the expression and conformational integrity for each mutant. All measurements were conducted at 30° C. temperature in 96-well black plates (Corning, Corning, NY) with a final volume of 240 μL per well at a constant agitation rate of 1000 RPM.
(§2) Conformation integrity of hMPV A F protein mutants were evaluated by thermal stress experiments. Crude cell culture supernatants were normalized based on the results of the titer quantitation and then incubated for 1 hour at room temperature and two higher temperatures. […] Anti-Human IgG Fc Capture (AHC) biosensors were first equilibrated in PB before being dipped into more PB to establish the initial baseline. […] The mAb-bound biosensors were then dipped into the thermal stressed cell culture supernatants for 5 minutes. The kinetics analysis was done by OCTET data analysis software (version 12.0, Sartorius) based on curve fitting of the entire associate step.

[2] = target: T2, hMPV048 (hMPV A, UniProt Q6WB98 19-102); test: BLI, no stress
T2 construct: L141C-A161C
Method: as §1, §2

[3] = target: T3, hMPV049 (hMPV A, UniProt Q6WB98 19-102); test: BLI, no stress
T3 construct: E146C-T160C
Method: as §1, §2

[4] = target: T4, hMPV050 (hMPV A, UniProt Q6WB98 19-102); test: BLI, no stress
T4 construct: V148C-L158C
Method: as §1, §2

[5] = target: T5, hMPV052 (hMPV A, UniProt Q6WB98 19-102); test: BLI, no stress
T5 construct: L66P
Method: as §1, §2

[6] = target: T6, hMPV053 (hMPV A, UniProt Q6WB98 19-102); test: BLI, no stress
T6 construct: L110P
Method: as §1, §2

[7] = target: T7, hMPV058 (hMPV A, UniProt Q6WB98 19-102); test: BLI, no stress
T7 construct: L187P
Method: as §1, §2

[8] = target: T8, hMPV059 (hMPV A, UniProt Q6WB98 19-102); test: BLI, no stress
T8 construct: V449P
Method: as §1, §2

[9] = target: T9, hMPV066 (hMPV A, UniProt Q6WB98 19-102); test: BLI, no stress
T9 construct: T49I
Method: as §1, §2

[10] = target: T10, hMPV067 (hMPV A, UniProt Q6WB98 19-102); test: BLI, no stress
T10 construct: S149T
Method: as §1, §2

[11] = target: T11, hMPV068 (hMPV A, UniProt Q6WB98 19-102); test: BLI, no stress
T11 construct: A159V
Method: as §1, §2

[12] = target: T12, hMPV071 (hMPV A, UniProt Q6WB98 19-102); test: BLI, no stress
T12 construct: T365I
Method: as §1, §2

[13] = target: hMPV A F WT Control (hMPV A, UniProt Q6WB98 19-102); test: BLI, no stress
Method: as §1, §2

[14] = target: T13, hMPV043 (hMPV A, UniProt Q6WB98 19-102); test: BLI, no stress
T13 construct: G366C-D454C
Method: as §1, §2

[15] = target: T14, hMPV044 (hMPV A, UniProt Q6WB98 19-102); test: BLI, no stress
T14 construct: T411C-Q434C
Method: as §1, §2

[16] = target: T15, hMPV045 (hMPV A, UniProt Q6WB98 19-102); test: BLI, no stress
T15 construct: I137C-A159C
Method: as §1, §2

[17] = target: T16, hMPV046 (hMPV A, UniProt Q6WB98 19-102); test: BLI, no stress
T16 construct: A140C-S149C
Method: as §1, §2

[18] = target: hMPV B F WT Control (hMPV B, UniProt Q6WB98 19-102); test: BLI, 56C stress
Method: (§3) All measurements were conducted at 30° C. temperature in 96-well black plates (Corning, Corning, NY) with a final volume of 240 μL per well at a constant agitation rate of 1000 RPM.
(§4) Conformation integrity of hMPV B F protein mutants were evaluated by a thermal stress experiment. Crude cell culture supernatants were normalized based on the results of the titer quantitation and then incubated for 1 hour at room temperature and two higher temperatures. For the testing of hMPV B single mutants, the two temperatures were 53° C. and 56° C. After the incubation, the protein mutants were probed with prefusion specific monoclonal antibody hMPV-2 by OCTET HTX. Anti-Human IgG Fc Capture (AHC) biosensors were first equilibrated in PB before being dipped into more PB for to establish the initial baseline. Biosensors were incubated with hMPV-2 before being equilibrated in PB to establish the experimental baseline. The mAb-bound biosensors were then dipped into the thermal stresses cell culture supernatants for 5 minutes.

[19] = target: T17, hMPV117 (hMPV B, UniProt Q6WB98 19-102); test: BLI, 56C stress
T17 construct: T150C-R156C, A459P
Method: as §3, §4

[20] = target: T18, hMPV118 (hMPV B, UniProt Q6WB98 19-102); test: BLI, 56C stress
T18 construct: T49I, T150C-R156C
Method: as §3, §4

[21] = target: T19, hMPV122 (hMPV B, UniProt Q6WB98 19-102); test: BLI, 56C stress
T19 construct: A140C-S149C, T411C-Q434C, A459P
Method: as §3, §4

[22] = target: T20, hMPV124 (hMPV B, UniProt Q6WB98 19-102); test: BLI, 56C stress
T20 construct: L141C-A161C, T411C-Q434C, A459P
Method: as §3, §4

[23] = target: T21, hMPV127 (hMPV B, UniProt Q6WB98 19-102); test: BLI, 56C stress
T21 construct: A140C-S149C, G239A, T411C-Q434C, A459P
Method: as §3, §4

[24] = target: T22, hMPV130 (hMPV B, UniProt Q6WB98 19-102); test: BLI, 56C stress
T22 construct: L141C-A161C, G239A, T411C-Q434C, A459P
Method: as §3, §4

[25] = target: T23, hMPV131 (hMPV B, UniProt Q6WB98 19-102); test: BLI, 56C stress
T23 construct: T49I, L141C-A161C, G239A, T411C-Q434C, A459P
Method: as §3, §4

[26] = target: T24, hMPV133 (hMPV B, UniProt Q6WB98 19-102); test: BLI, 56C stress
T24 construct: T49I, L141C-A161C, S149T, G239A, T411C-Q434C, A459P
Method: as §3, §4

[27] = target: T25, hMPV134 (hMPV B, UniProt Q6WB98 19-102); test: BLI, 56C stress
T25 construct: T49I, L141C-A161C, S149T, G239A, T365I, T411C-Q434C, A459P
Method: as §3, §4

[28] = target: T26, hMPV136 (hMPV B, UniProt Q6WB98 19-102); test: BLI, 56C stress
T26 construct: A140C-S149C, A459P
Method: as §3, §4

[29] = target: T27, hMPV137 (hMPV B, UniProt Q6WB98 19-102); test: BLI, 56C stress
T27 construct: T49I, A140C-S149C
Method: as §3, §4

[30] = target: T28, hMPV138 (hMPV B, UniProt Q6WB98 19-102); test: BLI, 56C stress
T28 construct: T49I, A140C-S149C, A459P
Method: as §3, §4

[31] = target: T29, hMPV139 (hMPV B, UniProt Q6WB98 19-102); test: BLI, 56C stress
T29 construct: T49I, L141C-A161C, T411C-Q434C
Method: as §3, §4

[32] = target: T30, hMPV140 (hMPV B, UniProt Q6WB98 19-102); test: BLI, 56C stress
T30 construct: T49I, L141C-A161C, T411C-Q434C, A459P
Method: as §3, §4

[33] = target: T31, hMPV142 (hMPV B, UniProt Q6WB98 19-102); test: BLI, 56C stress
T31 construct: L141C-A161C, S149T, A459P
Method: as §3, §4

B1: hMPV-2 mAb (antibody, V domains shown)
VH: QVQLQQSGAEVKKPGASVKVSCKASGYTFTSYGISWVRQAPGQGLEWMGWISGYNGNTNYAQTFQGTFTMTTDTSTSTAYMELRRLRSGDTAVYYCARDRYYASGSYNGMDVWGQGTTVTVSS
VL: QSALTQPPSASGAPGQRVTVSCSGSSSNVGSSSVYWYQQLPGTAPKLLIYRNNQRPSGVPDRFSGSKSGTSASLAISGLRSEDEADYYCAAWDDSLSGWVFGGGTKLTVLG
notes: human IgG1
Response Shift [1]: 0.268 nm
Response Shift [2]: 0.585 nm
Response Shift [3]: 0.7 nm
Response Shift [4]: 0.669 nm
Response Shift [5]: 0.739 nm
Response Shift [6]: 0.717 nm
Response Shift [7]: 0.709 nm
Response Shift [8]: 0.719 nm
Response Shift [9]: 0.767 nm
Response Shift [10]: 0.677 nm
Response Shift [11]: 0.783 nm
Response Shift [12]: 0.76 nm
Response Shift [13]: 0.782 nm
Response Shift [14]: 0.636 nm
Response Shift [15]: 0.797 nm
Response Shift [16]: 0.582 nm
Response Shift [17]: 0.573 nm
Response Shift [18]: 0.122 nm
Response Shift [19]: 0.64 nm
Response Shift [20]: 0.801 nm
Response Shift [21]: 0.686 nm
Response Shift [22]: 0.766 nm
Response Shift [23]: 0.674 nm
Response Shift [24]: 0.62 nm
Response Shift [25]: 0.657 nm
Response Shift [26]: 0.616 nm
Response Shift [27]: 0.665 nm
Response Shift [28]: 0.541 nm
Response Shift [29]: 0.626 nm
Response Shift [30]: 0.663 nm
Response Shift [31]: 0.65 nm
Response Shift [32]: 0.66 nm
Response Shift [33]: 0.706 nm
